This data set concerns Escherichia coli TOP10. The data set is described as follows: shrunken log2 fold change of peptide-encoding DNA abundance (4.5 h post-induction vs induction); higher = less antimicrobial activity (less host growth inhibition). The note with it: time post-induction: 4.5 h; library: site-saturation at positions 5, 18, 19, 20.

The results in this text go back to the supplement of paper PMC9112550, “Optimization of the antimicrobial peptide Bac7 by deep mutational scanning” (BMC Biology, 2022).
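Note: peptides expressed intracellularly from a pBAD plasmid library in pooled LB shake-flask culture, induced with 0.3% L-arabinose, DNA abundance read by NGS, three biological replicates, DESeq2 with apeglm shrinkage.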

Take RRIRIRPPRLPRPRPRPPYPPRP: the “shrunken log2 fold change” value was -0.188.
The figure for RRIRERPPRLPRPRPRPCRMPRP is -0.363; for RRIRRRPPRLPRPRPRPMTPPRP it is 0.749.
The result for RRIRIRPPRLPRPRPRPAMRPRP reads 1.37; that for RRIRPRPPRLPRPRPRPCCYPRP, -0.47.
With RRIRDRPPRLPRPRPRPACGPRP, the “shrunken log2 fold change” value turned out to be 0.684.
The figure for RRIRPRPPRLPRPRPRPSKHPRP is -0.441.
The figure for RRIRRRPPRLPRPRPRPILNPRP is -0.0188.
The figure for RRIRQRPPRLPRPRPRPWPGPRP is 0.116; for RRIRWRPPRLPRPRPRPMWPPRP it is 0.214; for RRIRQRPPRLPRPRPRPHSPPRP it is 0.000964.
On to RRIRFRPPRLPRPRPRPYKGPRP, for which the “shrunken log2 fold change” value is -0.631.
The result for RRIRPRPPRLPRPRPRPENGPRP reads -0.0225.
Regarding RRIRGRPPRLPRPRPRPCPTPRP, the “shrunken log2 fold change” value worked out at 0.0246.
RRIRWRPPRLPRPRPRPLDYPRP: the “shrunken log2 fold change” value is -0.314.
The result for RRIRARPPRLPRPRPRPMCLPRP reads 0.0284.
The figure for RRIRERPPRLPRPRPRPQVMPRP is -0.303; for RRIRGRPPRLPRPRPRPIRMPRP it is 0.0246.
On to RRIRQRPPRLPRPRPRPDSYPRP, for which the “shrunken log2 fold change” value is -0.127.
Take RRIRTRPPRLPRPRPRPWNSPRP: the “shrunken log2 fold change” value is -0.0351.
Consider RRIRLRPPRLPRPRPRPKITPRP, for which the “shrunken log2 fold change” value was -0.203.
The figure for RRIRHRPPRLPRPRPRPPACPRP is 0.153.
The figure for RRIRERPPRLPRPRPRPDNIPRP is -0.745; for RRIRSRPPRLPRPRPRPWGHPRP it is 0.109.
The result for RRIRRRPPRLPRPRPRPIIQPRP reads -0.342.
RRIRERPPRLPRPRPRPIPAPRP: the “shrunken log2 fold change” value was -0.0833.
The result for RRIRERPPRLPRPRPRPMQVPRP reads -0.32; that for RRIRFRPPRLPRPRPRPMIPPRP, 0.00508; that for RRIRGRPPRLPRPRPRPVDMPRP, 0.255.
Turning to RRIRYRPPRLPRPRPRPTVGPRP, the “shrunken log2 fold change” value turned out to be 0.0163.
RRIRVRPPRLPRPRPRPEPMPRP: the “shrunken log2 fold change” value is -0.0177.
The figure for RRIRFRPPRLPRPRPRPGFRPRP is 0.0855; for RRIRDRPPRLPRPRPRPEWQPRP it is 0.0508.
Consider RRIRDRPPRLPRPRPRPMEEPRP, for which the “shrunken log2 fold change” value is -0.00277.
The figure for RRIRKRPPRLPRPRPRPVNAPRP is 0.025; for RRIRLRPPRLPRPRPRPCKYPRP it is -0.0018; for RRIRCRPPRLPRPRPRPRMWPRP it is 0.0419.
The result for RRIRRRPPRLPRPRPRPWSYPRP reads -0.573; that for RRIRLRPPRLPRPRPRPHGTPRP, 0.0824.
Take RRIRGRPPRLPRPRPRPTKYPRP: the “shrunken log2 fold change” value turned out to be 0.189.
The result for RRIRGRPPRLPRPRPRPTEPPRP reads 0.716; that for RRIRHRPPRLPRPRPRPQTTPRP, -0.0121; that for RRIRYRPPRLPRPRPRPHHPPRP, -0.38.
Turning to RRIRKRPPRLPRPRPRPPVIPRP, the “shrunken log2 fold change” value amounted to 0.063.
The figure for RRIRHRPPRLPRPRPRPPRNPRP is 0.105; for RRIRIRPPRLPRPRPRPARCPRP it is 0.0563; for RRIRMRPPRLPRPRPRPDQKPRP it is -0.0396.
The figure for RRIRGRPPRLPRPRPRPIAFPRP is 0.8; for RRIRDRPPRLPRPRPRPNAAPRP it is 0.0798.
RRIRRRPPRLPRPRPRPGRGPRP: the “shrunken log2 fold change” value came to 0.805.
The result for RRIRTRPPRLPRPRPRPENGPRP reads 0.0885; that for RRIRERPPRLPRPRPRPMIDPRP, -0.28; that for RRIRMRPPRLPRPRPRPIYLPRP, -0.268.
The figure for RRIRVRPPRLPRPRPRPCIWPRP is 0.0495; for RRIRNRPPRLPRPRPRPEQEPRP it is 0.0175.
As for RRIRIRPPRLPRPRPRPCPCPRP, the “shrunken log2 fold change” value is -0.493.
The result for RRIRRRPPRLPRPRPRPDRKPRP reads -0.145; that for RRIRWRPPRLPRPRPRPYRVPRP, 0.00439.
The figure for RRIRMRPPRLPRPRPRPTEAPRP is 0.0796; for RRIRKRPPRLPRPRPRPDKEPRP it is -0.2; for RRIRCRPPRLPRPRPRPNHKPRP it is -0.862.
On to RRIRGRPPRLPRPRPRPAMVPRP, for which the “shrunken log2 fold change” value was 0.252.
Regarding RRIRKRPPRLPRPRPRPTVMPRP, the “shrunken log2 fold change” value worked out at 0.247.
Consider RRIRARPPRLPRPRPRPWHFPRP, for which the “shrunken log2 fold change” value was 0.24.
Consider RRIRHRPPRLPRPRPRPQSYPRP, for which the “shrunken log2 fold change” value was -0.175.
As to RRIRIRPPRLPRPRPRPWITPRP, the “shrunken log2 fold change” value is -0.917.
The figure for RRIRQRPPRLPRPRPRPSIGPRP is -0.268; for RRIRWRPPRLPRPRPRPCSAPRP it is 0.0988; for RRIRHRPPRLPRPRPRPSVRPRP it is -0.158.
The result for RRIRQRPPRLPRPRPRPHMYPRP reads -0.706.
As for RRIRWRPPRLPRPRPRPLNFPRP, the “shrunken log2 fold change” value was -0.323.
The result for RRIRERPPRLPRPRPRPTSCPRP reads -0.178.
As to RRIRHRPPRLPRPRPRPPRQPRP, the “shrunken log2 fold change” value is 0.108.
The result for RRIRNRPPRLPRPRPRPWPFPRP reads 0.0256.
With RRIRARPPRLPRPRPRPKAEPRP, the “shrunken log2 fold change” value came to 0.821.
The result for RRIRVRPPRLPRPRPRPVTGPRP reads -0.233.
RRIRFRPPRLPRPRPRPCTNPRP: the “shrunken log2 fold change” value is -0.598.
On to RRIRHRPPRLPRPRPRPGENPRP, for which the “shrunken log2 fold change” value was -0.00146.
The figure for RRIRQRPPRLPRPRPRPIDQPRP is -0.0135; for RRIRMRPPRLPRPRPRPYCNPRP it is -0.189; for RRIRGRPPRLPRPRPRPGYEPRP it is 0.365.
The figure for RRIRHRPPRLPRPRPRPDGDPRP is 0.0106.
For the sequence RRIRHRPPRLPRPRPRPRPTPRP, the “shrunken log2 fold change” value amounted to 0.759.
Regarding RRIRFRPPRLPRPRPRPSVPPRP, the “shrunken log2 fold change” value was -0.0911.
The figure for RRIRGRPPRLPRPRPRPCWQPRP is 0.153; for RRIRARPPRLPRPRPRPLGSPRP it is 0.471; for RRIRSRPPRLPRPRPRPHVVPRP it is 0.0681.
Turning to RRIRARPPRLPRPRPRPCEFPRP, the “shrunken log2 fold change” value is 0.168.
For the sequence RRIRKRPPRLPRPRPRPVPFPRP, the “shrunken log2 fold change” value was -0.101.
The figure for RRIRWRPPRLPRPRPRPFTFPRP is -0.326; for RRIRCRPPRLPRPRPRPCHCPRP it is 0.00562.
